Consider three molecules from patent publication EP4653869A1 (Nantes Université, dated 2025).

The experiment deals with T1, recombinant human interleukin-34 (IL-34) (human, UniProt Q6ZMJ4 21-242).
T1 construct: Bought recombinant protein; also called hIL34
T1 sequence (looked up): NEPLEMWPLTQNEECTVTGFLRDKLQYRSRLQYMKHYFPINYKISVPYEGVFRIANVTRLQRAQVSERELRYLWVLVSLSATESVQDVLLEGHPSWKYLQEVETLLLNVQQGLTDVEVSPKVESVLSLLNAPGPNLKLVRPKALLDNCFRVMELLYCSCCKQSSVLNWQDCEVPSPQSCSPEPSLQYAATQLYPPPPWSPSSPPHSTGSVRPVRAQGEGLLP
Description: SPR (Biacore T200), BMP immobilized on CM5 chip, IL-34 as analyte, single cycle titration, bivalent fitting model. In general terms: SPR reads the build-up and loss of mass on a sensor chip optically.

B1: recombinant human bone morphogenetic protein 7 (BMP-7) (ligand, UniProt P18075 293-431, looked up)
chain: STGSKQRSQNRSKTPKNQEALRMANVAENSSSDQRQACKKHELYVSFRDLGWQDWIIAPEGYAAYYCEGECAFPLNSYMNATNHAIVQTLVHFINPETVPKPCCAPTQLNAISVLYFDDSSNVILKKYRNMVVRACGCH
notes: Immobilized on a CM5 chip by amine coupling in the SPR assay
By koff is commonly meant the rate constant with which the complex falls apart. The kon is a measure of how fast the partners come together. For the molecule B1, the Kd worked out at 922 nM, the off-rate constant (koff) came out at 0.0561 s⁻¹ and the kon was found to be 60800 M⁻¹ s⁻¹.

B2: recombinant human bone morphogenetic protein 2 (BMP-2) (ligand, UniProt P12643 283-396, looked up)
chain: QAKHKQRKRLKSSCKRHPLYVDFSDVGWNDWIVAPPGYHAFYCHGECPFPLADHLNSTNHAIVQTLVNSVNSKIPKACCVPTELSAISMLYLDENEKVVLKNYQDMVVEGCGCR
notes: as for B1
Consider B2, for which the Kd amounted to 363 nM, the koff was found to be 0.0229 s⁻¹ and the on-rate (kon) turned out to be 63100 M⁻¹ s⁻¹.

B3: recombinant human bone morphogenetic protein 4 (BMP-4) (ligand, UniProt P12644 293-408, looked up)
chain: SPKHHSQRARKKNKNCRRHSLYVDFSDVGWNDWIVAPPGYQAFYCHGDCPFPLADHLNSTNHAIVQTLVNSVNSSIPKACCVPTELSAISMLYLDEYDKVVLKNYQEMVVEGCGCR
notes: as for B1
As for B3, the Kd was 426 nM, the koff stood at 0.0467 s⁻¹ and the kon was 110000 M⁻¹ s⁻¹.
